% positive staining of the cell population and %Gated (marker M1) data for one substance are collected here from patent publication US20130142802A1.

In test [1] the target is native FGFR2-IIIc on rat prostate cancer cell line AT3B-1 (rat) (UniProt F1LNW0). In words: flow cytometry on AT3B-1 cells; no-primary control 11%. In general terms: A flow cytometer gives signals particle by particle.
The target is the same in test [2]. Kind of test: flow cytometry on rat prostate cancer cell line AT3B-1; marker M1 9-7844, 1840 of 15000 events; the panel without primary antibody also prints 12.27.

human IgG (negative control) (antibody) showed a % positive staining of the cell population in test [1] of 12%. For the same substance, in test [2], the %Gated (marker M1) turned out to be 12.3%.
